In general, stoichiometry N refers to the number of molecules, sites or subunits per partner or assembly.

The test addresses purified soluble human FasL (AL-1) (human). In words: SEC. (Size exclusion chromatography separates by hydrodynamic size, large species first.)

For the substance “purified soluble human FasL (AL-1) (ligand)”, the stoichiometry N was 3.

The values are drawn from article PMC2199173.
